Biological target: the molecule itself
Assay: cryo-EM structure; ADP-bound hLon variants, 1.3 mg/ml, single-particle cryo-EM (cryoSPARC); homo-hexamer

B1: human Lon protease Y394E phosphorylation-mimicking mutant (enzyme, UniProt P36776 68-959, looked up)
chain: FWEASSRGGGAFSGGEDASEGGAEEGAGGAGGSAGAGEGPVITALTPMTIPDVFPHLPLIAITRNPVFPRFIKIIEVKNKKLVELLRRKVRLAQPYVGVFLKRDDSNESDVVESLDEIYHTGTFAQIHEMQDLGDKLRMIVMGHRRVHISRQLEVEPEEPEAENKHKPRRKSKRGKKEAEDELSARHPAELAMEPTPELPAEVLMVEVENVVHEDFQVTEEVKALTAEIVKTIRDIIALNPLYRESVLQMMQAGQRVVDNPIYLSDMGAALTGAESHELQDVLEETNIPKRLYKALSLLKKEFELSKLQQRLGREVEEKIKQTHRKELLQEQLKIIKKELGLEKDDKDAIEEKFRERLKELVVPKHVMDVVDEELSKLGLLDNHSSEFNVTRNYLDWLTSIPWGKYSNENLDLARAQAVLEEDHYGMEDVKKRILEFIAVSQLRGSTQGKILCFYGPPGVGKTSIARSIARALNREYFRFSVGGMTDVAEIKGHRRTYVGAMPGKIIQCLKKTKTENPLILIDEVDKIGRGYQGDPSSALLELLDPEQNANFLDHYLDVPVDLSKVLFICTANVTDTIPEPLRDRMEMINVSGYVAQEKLAIAERYLVPQARALCGLDESKAKLSSDVLTLLIKQYCRESGVRNLQKQVEKVLRKSAYKIVSGEAESVEVTPENLQDFVGKPVFTVERMYDVTPPGVVMGLAWTAMGGSTLFVETSLRRPQDKDAKGDKDGSLEVTGQLGEVMKESARIAYTFARAFLMQHAPANDYLVTSHIHLHVPEGATPKDGPSAGCTIVTALLSLAMGRPVRQNLAMTGEVSLTGKILPVGGIKEKTIAAKRAGVTCIVLPAENKKDFYDLAAFITEGLEVHFVEHYREIFDIAFPDEQAEALAVER
notes: human mitochondrial Lon protease (LONP1) lacking the N-terminal MTS, with Y394E; also called hLon Y394E; source: E. coli Rosetta 2 (DE3) or E. coli C321 (DE3), purified (NiNTA agarose, Superose 6 SEC)
**Q.** Which “stoichiometry N” value does the source give for B1 here?
**A.** The value was 6.
